Laboratory results taken from patent publication US11352401.

Each binder was assayed against T1, HLA-A*01 (human) (assay: UV peptide-exchange ELISA; ++++ = yield >75%).
T1 construct: MHC monomer made peptide-receptive by UV cleavage of a UV-sensitive ligand; also called peptide-receptive MHC class I monomer
Description: (§1) Candidate peptides for T cell based therapies according to the present invention were further tested for their MHC binding capacity (affinity). The individual peptide-MHC complexes were produced by UV-ligand exchange, where a UV-sensitive peptide is cleaved upon UV-irradiation, and exchanged with the peptide of interest as analyzed. Only peptide candidates that can effectively bind and stabilize the peptide-receptive MHC molecules prevent dissociation of the MHC complexes. To determine the yield of the exchange reaction, an ELISA was performed based on the detection of the light chain (β2m) of stabilized MHC complexes. The assay was performed as generally described in Rodenko et al. (Rodenko et al., 2006).
(§2) 96 well MAXISorp plates (NUNC) were coated over night with 2 ug/ml streptavidin in PBS at room temperature, washed 4× and blocked for 1 h at 37° C. in 2% BSA containing blocking buffer. […] Peptide-MHC monomers of the UV-exchange reaction were diluted 100-fold in blocking buffer. Samples were incubated for 1 h at 37° C., washed four times, incubated with 2 ug/ml HRP conjugated anti-β2m for 1h at 37° C., washed again and detected with TMB solution that is stopped with […]. Absorption was measured at 450 nm.

Peptide exchange yield, > 75%:
VSDSECLSRY [VSDSECLSRY (SEQ ID NO: 189)], VTEESFDSKFY [VTEESFDSKFY (SEQ ID NO: 192)], VTEFSLNTY [VTEFSLNTY (SEQ ID NO: 193)], YLDPVQRDLY [YLDPVQRDLY (SEQ ID NO: 198)], YSDEDVTKY [YSDEDVTKY (SEQ ID NO: 200)], YVGKEHMFY [YVGKEHMFY (SEQ ID NO: 201)], ASEAEMRLFY [ASEAEMRLFY (SEQ ID NO: 394)], ASEASRLAHY [ASEASRLAHY (SEQ ID NO: 395)], ASEFGNHYLY [ASEFGNHYLY (SEQ ID NO: 396)], ASEITSKGASLY [ASEITSKGASLY (SEQ ID NO: 397)], ATDIPCLLY [ATDIPCLLY (SEQ ID NO: 399)], DSDESYMEKSLY [DSDESYMEKSLY (SEQ ID NO: 401)], ETARKFLYY [ETARKFLYY (SEQ ID NO: 404)], ETEEGIYWRY [ETEEGIYWRY (SEQ ID NO: 405)], ETEQTKFWDY [ETEQTKFWDY (SEQ ID NO: 406)]

Each binder was assayed against T2, HLA-A*24 (human) (assay: UV peptide-exchange ELISA; ++++ = yield >75%).
T2 construct: MHC monomer made peptide-receptive by UV cleavage of a UV-sensitive ligand; also called peptide-receptive MHC class I monomer
Description: as §1, §2

Peptide exchange yield, > 75%:
QYDPTPLTW [QYDPTPLTW (SEQ ID NO: 1)], VWSNVTPLKF [VWSNVTPLKF (SEQ ID NO: 2)], SYEKVINYL [SYEKVINYL (SEQ ID NO: 4)], RYMKKDYLI [RYMKKDYLI (SEQ ID NO: 5)], KYKDYFPVI [KYKDYFPVI (SEQ ID NO: 6)], PFLPPAACFF [PFLPPAACFF (SEQ ID NO: 8)], VWSDVTPLNF [VWSDVTPLNF (SEQ ID NO: 10)], YYSKSVGFMQW [YYSKSVGFMQW (SEQ ID NO: 11)], HYTYILEVF [HYTYILEVF (SEQ ID NO: 13)], KYALLLQDL [KYALLLQDL (SEQ ID NO: 15)], KYALLLQEL [KYALLLQEL (SEQ ID NO: 51)], DYIGSVEKW [DYIGSVEKW (SEQ ID NO: 18)], EFTTVLYNF [EFTTVLYNF (SEQ ID NO: 20)], TQPGDWTLF [TQPGDWTLF (SEQ ID NO: 22)], KFIISDWRF [KFIISDWRF (SEQ ID NO: 23)]
